In this test the target is T1, mouse CD206 extracellular domain fused to a myc tag and the PDGFRβ transmembrane domain, displayed on MetBo2 … (Mus musculus (cDNA of IL-4 treated …)).
T1 construct: transmembrane domain of the human platelet-derived growth factor receptor (PDGFRβ); the methods name only myc; also called CD206 ECD; CD206 ECD construct; source: MetBo2 cells, transiently transfected (CMV promoter), on cells
T1 chain: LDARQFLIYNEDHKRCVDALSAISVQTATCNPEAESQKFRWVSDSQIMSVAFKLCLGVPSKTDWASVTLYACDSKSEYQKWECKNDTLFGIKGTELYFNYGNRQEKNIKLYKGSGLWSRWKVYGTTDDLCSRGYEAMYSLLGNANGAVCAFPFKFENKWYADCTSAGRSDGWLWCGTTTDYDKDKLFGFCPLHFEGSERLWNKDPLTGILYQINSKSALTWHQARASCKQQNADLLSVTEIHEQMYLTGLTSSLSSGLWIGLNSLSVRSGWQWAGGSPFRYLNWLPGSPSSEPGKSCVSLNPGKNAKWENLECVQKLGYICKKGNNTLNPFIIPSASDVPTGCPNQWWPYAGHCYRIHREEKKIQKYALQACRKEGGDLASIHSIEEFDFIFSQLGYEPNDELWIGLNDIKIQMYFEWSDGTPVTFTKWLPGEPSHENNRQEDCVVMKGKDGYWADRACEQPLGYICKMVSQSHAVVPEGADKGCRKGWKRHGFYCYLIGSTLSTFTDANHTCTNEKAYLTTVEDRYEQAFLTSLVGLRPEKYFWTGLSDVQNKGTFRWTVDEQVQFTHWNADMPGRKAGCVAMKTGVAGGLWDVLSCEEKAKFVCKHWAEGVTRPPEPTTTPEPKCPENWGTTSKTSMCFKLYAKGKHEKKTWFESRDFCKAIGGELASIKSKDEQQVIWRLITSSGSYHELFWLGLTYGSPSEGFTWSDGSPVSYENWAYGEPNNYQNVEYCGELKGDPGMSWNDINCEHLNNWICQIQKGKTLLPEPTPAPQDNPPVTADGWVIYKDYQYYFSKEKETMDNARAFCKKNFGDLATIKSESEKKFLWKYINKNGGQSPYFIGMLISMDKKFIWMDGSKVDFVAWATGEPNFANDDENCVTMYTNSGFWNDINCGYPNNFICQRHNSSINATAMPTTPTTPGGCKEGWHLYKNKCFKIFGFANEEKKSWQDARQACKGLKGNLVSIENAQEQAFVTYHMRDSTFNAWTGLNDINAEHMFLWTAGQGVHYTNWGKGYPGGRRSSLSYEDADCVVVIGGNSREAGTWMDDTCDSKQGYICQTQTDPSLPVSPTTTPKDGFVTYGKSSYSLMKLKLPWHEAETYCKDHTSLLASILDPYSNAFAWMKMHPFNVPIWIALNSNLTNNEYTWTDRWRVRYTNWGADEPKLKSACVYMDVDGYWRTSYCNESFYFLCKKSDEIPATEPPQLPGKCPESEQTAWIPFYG
Kind of test: immunostaining of cells or tissue; supernatant of HEK293FT cells with αCD206-mNeonGreen chromobody put on MetBo2 cells transiently expressing the CD206 ECD construct; 4 °C overnight in the dark; fluorescence microscopy (methods: fixed cells; legend: live cells). The following applies: partners not purified.

B1: αCD206-mNeonGreen chromobody (αCD206 VHH fused to mNeonGreen) (VHH)
VHH: QVQLQESGGGLVQPGGSLRLSCAASGNIFSINAIGWYRQAPGKQRELVATITLSGSTNYADSVKGRFSISRDNAKNTVYLQMNSLKPEDTAVYYCNANTYSDSDVYGYWGQGTQVTVSS
notes: also called αCD206 chromobodies; αCD206 nanobody; source: HEK293FT, transiently transfected; cell-free culture supernatant used unpurified
For B1, the binding result is given as “binds”.

The values above are taken from paper PMC11669160, “Engineering an αCD206-synNotch Receptor: Insights into the Development of Novel Synthetic Receptors” (ACS Synthetic Biology, 2024).
